Assay results as given in the supplement of paper PMC7877785.
± gives the uncertainty stated by the source.

Experiment: self-splicing fitness, log relative to wild type (ln ratio); higher = more splicing; Tetrahymena group I intron in knt gene, E. coli kanamycin selection, DiMSum; sequences stand for … in CUCUCU…GGAGGGAAAAGUUAUCAGGCAUGCACCUGGUAGCUAGUCUUUAAACCAAUAGAUUGCAUCGGUUUAAAAGGCAAGACCGUCAAAUUGCGGGAAAGGGGUCAACAGCCGUUCAGUACCAAGUCUCAGGGGAAACUUUGAGAUGGCCUUGCAAAGGGUAUGGUAAUAAGCUGACGGACAUGGUCCUAACCACGCAGCCAAGUCCUAAGUCAACAGAUCUUCUGUUGAUAUGGAUGCAGUUCACAGACUAAAUGUCGGUCGGGGAAGAUGUAUUCUUCUCAUAAGAUAUAGUCGGACCUCUCCUUAAUGGGAGCUAGCGGAUGAAGUGAUGCAACACUGGAGCCGCUGGGAACUAAUUUGUAUGCGAAAGUAUAUUGAUUAGUUUUGGAGUACUCGUGGUCG
Outline: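 Six replicate transformations of E. coli BL21(DE3) with a pET-22b(+) library were grown overnight at 37°C or 30°C. The library randomised all eight P1ex-region intron nucleotides, the intron lying in the knt kanamycin-resistance gene, and plates were LB agar with or without 25 μg/mL kanamycin plus 100 μg/mL carbenicillin, 50 μM IPTG and 0.2% rhamnose. Pooled colonies were amplicon-sequenced on an Illumina HiSeq 2500, and fitness is the DiMSum error-weighted combination of wild-type-normalised replicate fold changes, kanamycin versus none.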

| Sequence | self-splicing fitness (ln) (30 °C) | self-splicing fitness (ln) (37 °C) |
| --- | --- | --- |
| GAUUAGCAAUAUUACGUUAU | -3.04 ± 0.21 | -2.51 ± 0.18 |
| GAUUAGCAAUAUUACGUUUC | -3.69 ± 0.28 | -1.89 ± 0.18 |
| GCAAAGCAAUAUUACGAAGG | -2 ± 0.14 | -0.499 ± 0.17 |
| GCAAAGCAAUAUUACGACCG | -0.859 ± 0.14 | -1.26 ± 0.25 |
| GCAAAGCAAUAUUACGACUA | -0.955 ± 0.05 | -0.475 ± 0.055 |
| GCAAAGCAAUAUUACGAGAU | -3.64 ± 0.16 | -2.19 ± 0.12 |
| GCAAAGCAAUAUUACGAGGU | -3.56 ± 0.25 | -3.24 ± 0.33 |
| GCAAAGCAAUAUUACGAGUA | -2.1 ± 0.087 | -1.15 ± 0.086 |
| GCAAAGCAAUAUUACGAUUC | -1.26 ± 0.082 | -0.245 ± 0.1 |
| GCAAAGCAAUAUUACGCAGC | -0.0889 ± 0.15 | -2.46 ± 0.39 |
| GCAAAGCAAUAUUACGCAUG | -3.61 ± 0.22 | -2.97 ± 0.27 |
| GCAAAGCAAUAUUACGCGAA | -1.55 ± 0.14 | -0.599 ± 0.17 |
| GCAAAGCAAUAUUACGCGAC | -3.4 ± 0.13 | -1.54 ± 0.16 |
| GCAAAGCAAUAUUACGGAUA | -2.49 ± 0.13 | -1.6 ± 0.1 |
| GCAAAGCAAUAUUACGGGAG | -2.71 ± 0.11 | -2.08 ± 0.13 |
| GCAAAGCAAUAUUACGGUAU | -1.32 ± 0.072 | -0.489 ± 0.096 |
| GCAAAGCAAUAUUACGGUCC | -1.75 ± 0.14 | -0.8 ± 0.15 |
| GCAAAGCAAUAUUACGUAAC | -1.67 ± 0.12 | -0.338 ± 0.15 |
| GCAAAGCAAUAUUACGUAGU | -2.09 ± 0.11 | -1.14 ± 0.15 |

| Sequence | self-splicing fitness (ln) (30 °C) | self-splicing fitness (ln) (37 °C) |
| --- | --- | --- |
| GCAAAGCAAUAUUACGUCCC | -0.828 ± 0.14 | -0.697 ± 0.098 |
| GCAAAGCAAUAUUACGUCCG | -1.98 ± 0.25 | -1.74 ± 0.31 |
| GCAAAGCAAUAUUACGUCUU | -1.14 ± 0.074 | -1.11 ± 0.075 |
| GCAAAGCAAUAUUACGUGCA | -1.62 ± 0.099 | -0.826 ± 0.1 |
| GCAAAGCAAUAUUACGUGUC | -4.47 ± 0.18 | -1.84 ± 0.12 |
| GCAAAGCAAUAUUACGUUGC | -3.51 ± 0.21 | -1.88 ± 0.21 |
| GCACAGCAAUAUUACGAAAG | -3.79 ± 0.15 | -1.91 ± 0.11 |
| GCACAGCAAUAUUACGACUA | -1.17 ± 0.11 | -0.702 ± 0.085 |
| GCACAGCAAUAUUACGACUG | -1.14 ± 0.094 | -0.12 ± 0.093 |
| GCACAGCAAUAUUACGAGCG | -1.16 ± 0.066 | -0.171 ± 0.077 |
| GCACAGCAAUAUUACGAUGC | -3.17 ± 0.2 | -1.88 ± 0.17 |
| GCACAGCAAUAUUACGAUUC | -0.739 ± 0.11 | 1.44 ± 0.15 |
| GCACAGCAAUAUUACGCAUU | -0.442 ± 0.064 | 0.276 ± 0.078 |
| GCACAGCAAUAUUACGCGAU | -2.12 ± 0.16 | -1.55 ± 0.15 |
| GCACAGCAAUAUUACGCGCC | -2.56 ± 0.38 | – |
| GCACAGCAAUAUUACGCGGC | -4.04 ± 0.43 | -1.84 ± 0.26 |
| GCACAGCAAUAUUACGCGGG | -2.13 ± 0.069 | -1.39 ± 0.081 |
| GCACAGCAAUAUUACGCGUU | -1.29 ± 0.053 | -0.545 ± 0.057 |
